Assay results from patent US11441147B2 (priority 2013, dated 2022).
Read-outs that look alike come from different tables or passages of the source.

Columns and labels:
[1] = test system: Fusarium graminearum (Fg) macroconidia; type: cell-based; conditions: for Morphology of Fg macroconidia (microscopic analysis): 1.5 μg dsRNA per 100 macroconidia in 100 μl SNA medium
GFP-expressing Fg strain = type: in vivo, Fusarium graminearum on Arabidopsis thaliana Col-0; conditions: 3 dpi; CYP3RNA-expressing leaves
[2] = test system: Fusarium graminearum (Fg); type: in vivo, Fusarium graminearum on barley cultivar Golden Promise; conditions: 6 days after inoculation
Fg CYP51A = type: in vivo, Fusarium graminearum; conditions: 3 dpi; average of lines L1, L8, L10, L11 vs ev control line
Fg CYP51B = type: in vivo, Fusarium graminearum; conditions: 3 dpi; average of lines L1, L8, L10, L11 vs ev control line
[3] = test system: siRNAs corresponding to the targeted CYP51 sequences; experiment: Northern analysis of siRNAs in Arabidopsis leaves with CYP3RNA as probe; design: species or system Arabidopsis thaliana; conditions: Fg-infested and uninfested leaves from CYP3RNA-expressing plants
Experimental: For detecting siRNA, total RNA was extracted from the Arabidopsis lines using TRIzol reagent (Invitrogen) following the manufacturer's protocol. A total of 15 μg total RNA was separated in a 16% polyacrylamide-7 M urea gel, and transferred onto Hybond Nylon membrane (Amersham, UK) using a semidry blotter (BioRad) at constant current (250 mA) for 3 h. The RNA was UV-cross-linked to the membrane at 1200×100 μjoules (UV Stratalinker) energy. The membrane was pre-hybridized for 45 min at 42° C. in 20 ml PerfectHyb-Puffer (Sigma). The complete 791 bp CYP3RNA PCR amplicon was used as a template for random labeling (Random Primer DNA Labeling with Kit, NEB), added to the hybridization buffer, and hybridized overnight at 42° C. The membrane was washed twice at room temperature with 5×SSC+0.01% SDS. The membrane was exposed on phosphorimaging screens (Bio-Rad) and signals were detected using a molecular imager and the Quantity One software (BioRad). A parallel loading of low range RNA marker (Fermentas) was used as size marker.
It was further assessed whether this reduction in Fg CYP51 transcripts was associated with the production of corresponding siRNAs. In Northern analyses using CYP3RNA as the probe, siRNAs corresponding to the targeted CYP51 sequences in both Fg-infested and uninfested leaves from CYP3RNA-expressing plants were detected (FIG. 8). […]

CYP51B = type: cell-based, Fusarium graminearum; conditions: 72 hpt; normalized to beta-tubulin
[4] = test system: Fusarium graminearum (Fg); conditions: 3 dpi
Fg CYP51C = type: in vivo, Fusarium graminearum; conditions: 3 dpi; average of lines L1, L8, L10, L11 vs ev control line
CYP51C = type: cell-based, Fusarium graminearum; conditions: 72 hpt; normalized to beta-tubulin
[5] = test system: Fusarium graminearum (Fg) macroconidia; type: cell-based; conditions: 0 hpt and 72 hpt; dose dependent, 75 μg to 1 μg dsRNA
CYP51A = type: cell-based, Fusarium graminearum; conditions: 72 hpt; normalized to beta-tubulin
[6] = test system: Fusarium graminearum (Fg); type: in vivo, Fusarium graminearum on barley; conditions: upper part sprayed, lower part inoculated after 2 days; 6 days after inoculation

Molecule | Phenotype of Fg macroconidia ([1]; tebuconazole 5 mg/l, 72 h post treatment) | Fungal growth on intact leaves (GFP fluorescence) (GFP-expressing Fg strain) | Morphology of Fg macroconidia (microscopic analysis) ([1]; 48 h post treatment) | Morphology of Fg macroconidia (microscopic analysis) ([1]; 72 h post treatment) | Relative amount of fungal DNA (qPCR, normalized to plant ubiquitin DNA) ([2]; vs infected control leaves) | Fungal growth on sprayed leaves (infection symptoms) ([2]; dsRNA 20 ng/μl sprayed 48 h before inoculation, vs buffer or GFP-dsRNA) | Reduction of relative transcript level of Fg CYP51A (Fg CYP51A) [%] | Reduction of relative transcript level of Fg CYP51B (Fg CYP51B) [%] | siRNAs corresponding to the targeted CYP51 sequences [3] | CYP51B transcript level vs mock control (CYP51B) | Reduction of fungal mycelium formation on leaves (trypan blue microscopy) ([4]; CYP3RNA-expressing leaves vs Col-0 ev control) [%] | Disease symptoms on detached leaves ([4]; T2 lines L1, L8, L10, L11, 5×10^4 Fg macroconidia per ml) | Percentage of infested leaf area ([4]; four transgenic lines, ev controls 77%) [%] | Reduction of relative transcript level of Fg CYP51C (Fg CYP51C) [%] | CYP51C transcript level vs mock control (CYP51C) | Fungal growth (optical densities of Fg cultures at 600 nm) [5] | CYP51A transcript level vs mock control (CYP51A) | Fungal growth at sprayed upper and unsprayed lower leaf area (relative amount of fungal DNA) [6]
CC(C)(C)C(O)(CCc1ccc(Cl)cc1)Cn1cncn1 (stereo not drawn) [tebuconazole, reference compound] | phenotype comparable to that elicited by CYP3RNA treatment |  |  |  |  |  |  |  |  |  |  |  |  |  |  |  |  | 
CYP3RNA: 791 bp dsRNA complementary to all three Fg CYP51 genes, from stacked clone CYP51B-CYP51A-CYP51C; SEQ ID NO:7 (nucleic acid, combines partial sequences of Fusarium graminearum CYP51B-CYP51A-CYP51C) DNA: CAGCAAGTTTGACGAGTCCCTGGCCGCTCTCTACCACGACCTCGATATGGGCTTCACCCCCATCAACTTCATGCTTCACTGGGCCCCTCTCCCCTGGAACCGTAAGCGCGACCACGCCCAGCGCACTGTTGCCAAGATCTACATGGACACTATCAAGGAGCGCCGCGCCAAGGGCAACAACGAATCCGAGCATGACATGATGAAGCACCTTATGAACTCTCCATGGCGGCCGCGGGAATTCGATATCGGTCCATTGACAATCCCCGTCTTTGGTAGCGATGTCGTATACGATTGTCCCAACTCGAAGCTCATGGAACAAAAGAAGTTTGTCAAGTTTGGCCTTACGCAAAAAGCACTCGAGTCACACGTCCAGTTAATCGAGCGAGAGGTTCTTGACTACGTCGAAACTGATCCATCCTTTTCTGGCAGAACTAGCACCATCGATGTCCCCAAGGCAATGGCTGAGATAACAATCTTTACTGCCTCACGTTCTTTGCAGGGTGAGGAAGTTCGGAGAAAACTCACTGCCGAGTTTGCTGCCACTAGTATTGGAAGCACCGTACAATATGGCATCGACCCGTACGCTTTTTTCTTCGACTGCAGAGATAAATACGGCGACTGCTTTACCTTTATTCTCCTTGGCAAATCAACGACTGTCTTTCTTGGTCCCAAGGGCAATGACTTTATCCTCAACGGCAAACACGCCGATCTCAACGCCGAGGACGTTTATGGGAAACTTACCACGCCCGTGTTTGGTGAGGAGGTTGTTTATGACTGCTCCAATG |  | restricted to the inoculation site | swelling of hyphal tips | morphological changes had become more pronounced | significantly lower | significant inhibition of fungal growth | 92 | 89 | detected | significantly reduced | ~100 | no disease symptoms | 0.9 | 77 | significantly reduced | strongly inhibited | significantly reduced | observed not only at the CYP3RNA-treated upper leaf area but also at the lower leaf area
